Results from paper doi:10.1101/2022.02.15.480489 (bioRxiv, 2022).

Biological target: the molecule itself
Assay: fluorescence correlation spectroscopy

| Protein | stoichiometry N |
| --- | --- |
| Ana2-mNG (Ana2 tagged with monomeric NeonGreen at the C-terminus, CRISPR/Cas9 knock-in at the endogenous locus) (natural protein) MFVPETEDMLPRLAPRPSAAVPMGHTNEIIGPTVPEVSILFGQPPQDPQMQPQQPNHAHQESSPRAAPTFASWKKQMLPRVNFSPILATELGPRTAPSSNSPCSSKEYQVMPRDRNYASDAQQTTNHMNCNAGGYNAEPKQQAYQSRRLSSSSNADVLTICAGTQTDPFNPSPPRKSLPQVVYSDIDVSNLANKSDLAALVSLVESVRHEQQQLRNLCEMILEQQQRAKPEAISKASSTTGTQCDILTTNQAGRRLSPIMQDYIAEEEEPLPPPQARVIPQFPSPRPHPPIAQSTGYRANTPQAKRIPQLAKPNTEKSMVMNELALKYLRQPVDELMKDMRLGASPKSPNPEPLRPIDNIGHAQSPNDISNASYKYLKKYRLLPEEQLEPVCPQSPMAATAPSPHIQLDLENIRNQPKLL | ~2 |
| mNG-Ana2 (Ana2 tagged with monomeric NeonGreen at the N-terminus, CRISPR/Cas9 knock-in at the endogenous locus) (natural protein) MFVPETEDMLPRLAPRPSAAVPMGHTNEIIGPTVPEVSILFGQPPQDPQMQPQQPNHAHQESSPRAAPTFASWKKQMLPRVNFSPILATELGPRTAPSSNSPCSSKEYQVMPRDRNYASDAQQTTNHMNCNAGGYNAEPKQQAYQSRRLSSSSNADVLTICAGTQTDPFNPSPPRKSLPQVVYSDIDVSNLANKSDLAALVSLVESVRHEQQQLRNLCEMILEQQQRAKPEAISKASSTTGTQCDILTTNQAGRRLSPIMQDYIAEEEEPLPPPQARVIPQFPSPRPHPPIAQSTGYRANTPQAKRIPQLAKPNTEKSMVMNELALKYLRQPVDELMKDMRLGASPKSPNPEPLRPIDNIGHAQSPNDISNASYKYLKKYRLLPEEQLEPVCPQSPMAATAPSPHIQLDLENIRNQPKLL | ~2 |
